Source: patent publication US20220204630A1 (SUNSHINE LAKE PHARMA, published 2022)

B1: mouse monoclonal antibody produced by hybridoma clone 2A5 (antibody, V domains shown)
VH: EVQLQQSGPELVKPGASMKISCKASGYSFTGYTMNWVKQSHGKNLEWIGLINPYNGGTNYNQKFKGKATLTVDKSSSTAYMELLSLTSEDSAVYYCAFSYYGSRGFYFDYWGQGTTLTVSS
VL: QIVLTQSPALMSASPGEKVTMTCSATSSVSYIYWYQQKPRSSPKPWIYLTSNLASGVPARFSGSGSGTSYSLTISSMEAEDAATYYCQQWSSNPPTFGGGTKLEIK
notes: also called 2A5 (positive clone supernatant)
B2: mouse monoclonal antibody produced by hybridoma clone 1B9 (antibody, V domains shown)
VH: QVHLQQSGAELMKPGASVKISCKATGYTFNIYWIDWVKQRPGHGLEWIGEILPGSGNTHYNENFKGKATMTADTSSNTAYMQLTSLTSEDSAVYYCARTDGRGYFDYWGQGTTLTVSS
VL: DIVLTQSPASLVVSLGQRATISCRTSKSVSSSAYSYMHWYQQKPGQPPKVLIYLASNLESGVPARFSGSGSGTDFTLNIHPVEEEDAATYYCQHSRELPFTFGSGTKLEIK
notes: also called 1B9 (positive clone supernatant)
B3: mouse monoclonal antibody produced by hybridoma clone 23E12 (antibody, V domains shown)
VH: QVQLQQSGAELVRPGTSVKISCKASGYAFTNYWLGWMKQRPGHGLEWIGDFYPRTGNTFYNENFKGKVTLTADKSSNTAYMQLSSLTSEDSAVYLCARAGTGFDYWGQGTTLTVSS
VL: SIVMTQSPKSMSMSVGERVTLSCKASENVGGYVSWYQQKPDQSPKLLIYGASSRHTGVPDRFTGSGSETDFTLTISSVQAEDLAAYHCGQNYIYPFTFGGGTKLEIK
notes: also called 23E12 (positive clone supernatant)
B4: mouse monoclonal antibody produced by hybridoma clone 21E5 (antibody, V domains shown)
VH: QVQLQQSGAELMKPGASMKISCKATGYTFSTYWIEWVKQRPGHGLEWIGENLPGRHITNYNEKFKGKATFTADTSSNTAYMQLSSLTSEDSAVYYCARGRGTYYFDYWGQGTPLTVSS
VL: DIVMTQAAFSTPVTLGTSASISCRSSQSLLHSNGITYLYWYLQKPGQSPQLLIYQMSNLASGVPDRFSSSGSGTDFTLRISRVEAEDVGVYYCAQNLEFPFTFGSGTKLEIK
notes: also called 21E5 (positive clone supernatant)
B5: mouse monoclonal antibody produced by hybridoma clone 15D4 (antibody, V domains shown)
VH: QVQLQQSGAELMKPGASVKISCKATGYTFSSYWIEWVKQRPGHGLEWLGEFLPRSGKTNYNEEFRGKATFTADTSSNTAYMQLSSLTSEDSAVYYCARTDPPYFGVWGAGTMVAVSS
VL: QIVLTQSPPIMSASPGEKVTMTCSASSNISYMHWYQQKSGTSPKRWIYDTSKLASGVPARFSGSGSGTSYSLTISSMEAEDAATYYCQQWSSVPLTFGAGTKLEIK
notes: also called 15D4 (positive clone supernatant)
B6: mouse monoclonal antibody produced by hybridoma clone 4H4 (antibody, V domains shown)
VH: EVQLQQSGPELVKPGASMKISCKASGYSFTGYTMNWVKQSHGKNLEWIGLINPYNGGTRYNQKFKGKATLTVDKSSSTAYMELLSLTSEDSAVYYCASSSYRNDGNWYFDVWGAGTTVTVSS
VL: DIVMTQSPAIMSASPGEKVTMTCSASSSVSYMHWYQQKSGTSPKRWIYDTSKLASGVPARFSGSGSGTSYSLTISSMETEDAATYYCQQWSSNPPTFGGGTKLELK
notes: also called 4H4 (positive clone supernatant)
B7: mouse monoclonal antibody produced by hybridoma clone 27H3 (antibody, V domains shown)
VH: QVQLQQSGAELMKPGASVKISCKTTGYRFSSYWIEWVKQRPGHGLEWLGEILPGRGIINYNENFRGKATFTADTSSNTAYVQLSSLTSEDSAVYFCARTDPPYFGVWGAGTTVTVSS
VL: QAVVTQESALTTSPGETVTLTCRSSTGAVTISNYANWVQEKPDHLFTGLIGGTNNRPPGVPARFSGSLIGDKAALTITGAQTEDEAIYFCVLWYSNHWVFGGGTKLTVL
notes: also called 27H3 (positive clone supernatant)
B8: mouse monoclonal antibody produced by hybridoma clone 2008 (antibody, V domains shown)
VH: EVLLQQSGPELVKPGASMKISCKASVYSFTAYTMNWVKQSHGKNLEWIGLINPHNGGTRYNQKFKGKATLTLDKSSSTAYMDLLSLTSEDSAVYYCAISRYGSSSFYFDVWGAGTTVAVSS
VL: QIVLSQSPAILSASPGEKVTMTCRASSSISYMHWYQQKPGSSPKPWISATSNLASGVPARFSGSGSGTSYSLTISGVEAEDAATYYCQQWSSNPPTFGGGTNLEIK
B9: mouse monoclonal antibody produced by hybridoma clone 22D12 (antibody, V domains shown)
VH: EVQLQQSGPELVKPGASMKISCKASGYSITGYTMNWVKQSHGKNLEWIGLVNPYNGGTSYNQKFKGKATLTVDKSSSTAYMELLSLKSEDSAVYYCAISRYGSESWYFDVWGAGTTVTVSS
VL: QIVLSQSPAILSASPGEKVTMTCRATSSVSYMYWYQQKPGSSPKPWIYATSNLASGVPARFSGSGSGTSYSLTISRVEAEDAATYYCQQWSSNPPTFGGGTKLEKK
notes: also called 22D12 (positive clone supernatant)
B10: MNAC13 (anti-TrKA monoclonal antibody, positive control) (antibody, human IgG4 S228P, kappa, F234A L235A, V domains shown)
VH: EVQLLESGGGLVQPGGSLRLSCAASGFTFSTYTMSWARQAPGKGLEWVAYISKGGGSTYYPDTVKGRFTISRDNSKNTLYLQMNSLRAEDSAVYYCARGAMFGNDFFFPMDRWGQGTLVTVSS
VL: DIVLTQSPSSLSASVGDRVTITCSASSSVSYMHWYQQKPGQAPKLLIYTTSNLASGVPSRFSGSGSGTDYTLTISSLQPEDVATYYCHQWSSYPWTFGGGTKVEIKR

These binders were tested against T1, Mouse-TrKA protein (mouse, UniProt Q3UFB7 34-420, limits assumed) (assay: ELISA, hybridoma supernatant on Mouse-TrKA).
T1 construct: also called Mouse-TrKA receptor
T1 sequence (Q3UFB7 34-420 limits assumed): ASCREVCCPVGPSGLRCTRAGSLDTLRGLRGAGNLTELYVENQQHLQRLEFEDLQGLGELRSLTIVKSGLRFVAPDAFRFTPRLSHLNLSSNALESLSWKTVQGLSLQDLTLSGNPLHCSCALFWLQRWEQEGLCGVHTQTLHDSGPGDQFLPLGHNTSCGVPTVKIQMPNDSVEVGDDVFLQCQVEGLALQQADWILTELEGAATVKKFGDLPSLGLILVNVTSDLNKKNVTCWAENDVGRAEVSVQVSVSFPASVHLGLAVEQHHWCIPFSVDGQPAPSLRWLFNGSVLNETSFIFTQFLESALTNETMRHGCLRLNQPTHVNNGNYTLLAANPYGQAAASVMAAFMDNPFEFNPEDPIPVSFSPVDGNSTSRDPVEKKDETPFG
From the text: The binding of monoclonal antibodies produced by the supernatant of each positive clone to the Mouse-TrKA receptor was detected by ELISA method, and the human-mouse cross reaction of positive clones producing monoclonal antibodies was detected. In FIG. 3, the OD₄₅₀ value reflects the strength of the binding of the antibody to the protein. The larger the reading, the stronger the binding of the antibody to the protein. […] It can be seen that clones 23E12, 21E5, 15D4, and 27H3 can produce monoclonal antibodies that bind to both Human-TrKA and Mouse-TrKA, and there is a human-mouse cross reaction.
B1: no binding.
B2: no binding.
Binder B3 has an OD450 of ~3.5 OD450.
For B4, the OD450 was ~3.5 OD450.
Binder B5 has an OD450 of ~3.5 OD450.
B6: no binding.
B7 gave an OD450 of ~3.5 OD450.
B8: no binding.
B9: no binding.

Each binder was assayed against TrkA protein on HEK-293T-TrkA cells or NIH-3T3-TrkA cells (human, UniProt P04629 33-796) (assay: cell-based or functional assay).
Chain of TrkA protein on HEK-293T-TrkA cells or NIH-3T3-TrkA cells (P04629 33-796): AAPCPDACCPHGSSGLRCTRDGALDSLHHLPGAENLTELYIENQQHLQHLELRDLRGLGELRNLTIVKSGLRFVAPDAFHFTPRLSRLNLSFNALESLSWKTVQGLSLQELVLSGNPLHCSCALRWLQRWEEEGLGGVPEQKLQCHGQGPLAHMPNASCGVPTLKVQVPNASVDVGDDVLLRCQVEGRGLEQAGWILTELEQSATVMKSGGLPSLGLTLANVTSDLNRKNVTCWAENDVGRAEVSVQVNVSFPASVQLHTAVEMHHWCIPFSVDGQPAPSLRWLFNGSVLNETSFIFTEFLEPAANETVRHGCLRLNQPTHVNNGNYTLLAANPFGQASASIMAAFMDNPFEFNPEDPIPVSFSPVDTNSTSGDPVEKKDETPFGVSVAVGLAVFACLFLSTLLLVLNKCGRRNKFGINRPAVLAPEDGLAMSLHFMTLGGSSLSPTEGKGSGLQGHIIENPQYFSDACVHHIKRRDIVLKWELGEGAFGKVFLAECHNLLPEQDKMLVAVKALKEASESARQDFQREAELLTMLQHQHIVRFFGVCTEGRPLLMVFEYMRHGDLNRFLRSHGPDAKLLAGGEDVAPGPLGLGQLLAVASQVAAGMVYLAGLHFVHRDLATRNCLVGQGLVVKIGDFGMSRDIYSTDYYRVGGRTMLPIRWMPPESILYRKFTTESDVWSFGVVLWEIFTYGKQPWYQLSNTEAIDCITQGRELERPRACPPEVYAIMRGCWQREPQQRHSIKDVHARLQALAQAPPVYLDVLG
B10 was tested, and the “IC50; p-TrkA level by AlphaLISA in NGF-stimulated NIH3T3-TrkA stable cell line” value was 0.16 µg/mL.
